In patent US20030008820A1:

Molecular target: FGFR on smooth muscle cells (SMC) isolated from bovine aorta (bovine)
Experiment: cell-based or functional assay

Row | fold activity in promoting SMC proliferation compared to wild-type FGF2 [fold] | molar concentration required to achieve half maximal proliferation of SMC ([3H] thymidine incorporation, no chlorate) [pM] | proliferation of chlorate-treated (HLGAG-depleted) SMC, percent of full proliferation [%] | Substance
1 | 4.5 | 60 | 80 | dFGF2, tandemly-linked dimeric FGF2, as purified with N-terminal His tag and C-terminal T7 tag (ligand)
2 | – | 270 | – | Recombinant human wild-type FGF2 (ligand)
